Experimental findings from the supplement of paper PMC10724198 are described below.

± gives the standard deviation of the averaged measurements.

The subject of data set [1] is Saccharomyces cerevisiae. The data set is described as follows: protein stability index of tFT-peptide fusion (C-terminal peptide) (PSI (0-1 scale)); higher = more stable (slower turnover). The method, then:
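MPS profiling in S. cerevisiae of the tFT-X12 degron library: putative degron peptides plus stable controls, 12 aa, fused to the C-terminus of a sfGFP-mCherry timer. Cells are FACS-sorted into 8 mCherry/sfGFP bins and deep-sequenced. PSI runs from 0 (unstable) to 1 (stable). Backgrounds are wild type, das1Δ and doa10Δ at 30 °C, and wild type, das1Δ, cdc34-1 and cdc53-1 at 37 °C; 2-3 technical replicates each.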

The subject of data set [2] is Saccharomyces cerevisiae. The description is as above. The settings on record: genetic background: wild type; temperature: 30 C.
The mark [3] stands for this setting: genetic background: cdc34-1, temperature: 37 C.
Where [4] appears, read: genetic background: cdc53-1, temperature: 37 C.
The mark [5] stands for this setting: genetic background: das1 deletion, temperature: 30 C.
Setting [6] is: genetic background: das1 deletion, temperature: 37 C.
The mark [7] stands for this setting: genetic background: doa10 deletion, temperature: 30 C.
The mark [8] stands for this setting: genetic background: wild type, temperature: 30 C.
[9] abbreviates: genetic background: wild type, temperature: 37 C.
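Note: PSI is a weighted mean of sequencing reads over stability bins, variants kept only with over 10 reads, mCherry proximal and sfGFP distal, peptide attached via GGGS linker.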

In the case of LVVAVLKIIMSS, the protein stability index worked out at 0.13 ± 0.023 in data set [1] (setting [3]); 0.201 ± 0.00098 in data set [1] (setting [4]); 0.2 ± 0.033 in data set [1] (setting [5]); 0.349 ± 0.013 in data set [1] (setting [6]); 0.0697 ± 0.012 in data set [1] (setting [7]); 0.0742 ± 0.023 in data set [1] (setting [8]). Besides, the protein stability index in data set [1] (setting [9]) came to 0.0596 ± 0.0031; in data set [2], 0.124 ± 0.027.
As for LWFLDYVFICFL, the protein stability index stood at 0.335 ± 0.017 in data set [1] (setting [3]); 0.347 ± 0.025 in data set [1] (setting [4]); 0.33 ± 0.034 in data set [1] (setting [5]); 0.452 ± 0.012 in data set [1] (setting [6]); 0.3673 ± 0.0034 in data set [1] (setting [7]); 0.299 ± 0.018 in data set [1] (setting [8]). In addition, the protein stability index in data set [1] (setting [9]) was 0.399 ± 0.011; in data set [2] it was 0.382 ± 0.022.
LWFRCVRMQACR: the protein stability index in data set [1] (setting [3]) was 0.47 ± 0.031; in data set [1] (setting [4]), 0.51569 ± 0.00022; in data set [1] (setting [5]), 0.411 ± 0.019; in data set [1] (setting [6]), 0.5101 ± 0.0028; in data set [1] (setting [7]), 0.42 ± 0.025; in data set [1] (setting [8]), 0.41 ± 0.015. Besides, the protein stability index is 0.492 ± 0.0094 in data set [1] (setting [9]) and 0.507 ± 0.032 in data set [2].
Take LWLFIVCWVGCV: the protein stability index in data set [1] (setting [3]) was 0.234 ± 0.017; in data set [1] (setting [4]), 0.301 ± 0.044; in data set [1] (setting [5]) it was 0.201 ± 0.019; in data set [1] (setting [6]) it was 0.339 ± 0.014; in data set [1] (setting [7]), 0.1847 ± 0.00077; in data set [1] (setting [8]), 0.177 ± 0.025. For the same sequence, the protein stability index in data set [1] (setting [9]) worked out at 0.31 ± 0.0052; in data set [2] it was 0.247 ± 0.033.
Take LWLVSLLVLWLT: the protein stability index in data set [1] (setting [3]) is 0.332 ± 0.035; in data set [1] (setting [4]) it was 0.375 ± 0.033; in data set [1] (setting [5]) it was 0.291 ± 0.033; in data set [1] (setting [6]), 0.439 ± 0.011; in data set [1] (setting [7]), 0.239 ± 0.0059; in data set [1] (setting [8]) it was 0.256 ± 0.02. The protein stability index in data set [1] (setting [9]) came to 0.383 ± 0.013; in data set [2], 0.316 ± 0.018.
Turning to LWNFYELVVYAM, the protein stability index worked out at 0.046 ± 0.016 in data set [1] (setting [3]); 0.0695 ± 0.046 in data set [1] (setting [4]); 0.159 ± 0.035 in data set [1] (setting [5]); 0.153 ± 0.04 in data set [1] (setting [6]); 0.103 ± 0.021 in data set [1] (setting [7]); 0.121 ± 0.019 in data set [1] (setting [8]). Further, the protein stability index in data set [1] (setting [9]) is 0.114 ± 0.0054; in data set [2] it was 0.212 ± 0.018.
On to LYLFKVLFFRVF, for which the protein stability index was 0.122 ± 0.047 in data set [1] (setting [3]); 0.173 ± 0.026 in data set [1] (setting [4]); 0.286 ± 0.045 in data set [1] (setting [5]); 0.458 ± 0.06 in data set [1] (setting [6]); 0.0857 ± 0.0067 in data set [1] (setting [7]); 0.0584 ± 0.016 in data set [1] (setting [8]). In addition, the protein stability index in data set [1] (setting [9]) amounted to 0.102 ± 0.015; in data set [2], 0.104 ± 0.048.
For LYYSVIFLFLSW, the protein stability index came out at 0.255 ± 0.0028 in data set [1] (setting [3]); 0.306 ± 0.023 in data set [1] (setting [4]); 0.232 ± 0.033 in data set [1] (setting [5]); 0.371 ± 0.016 in data set [1] (setting [6]); 0.272 ± 0.036 in data set [1] (setting [7]); 0.208 ± 0.026 in data set [1] (setting [8]). The protein stability index in data set [1] (setting [9]) was 0.334 ± 0.033; in data set [2], 0.339 ± 0.047.
On to MACLRLTVYVMG, for which the protein stability index in data set [1] (setting [3]) is 0.0763 ± 0.013; in data set [1] (setting [4]), 0.0769 ± 0.045; in data set [1] (setting [5]), 0.135 ± 0.031; in data set [1] (setting [6]) it was 0.2187 ± 0.0016; in data set [1] (setting [7]), 0.088 ± 0.034; in data set [1] (setting [8]), 0.13 ± 0.026. Further, the protein stability index in data set [1] (setting [9]) is 0.202 ± 0.0036; in data set [2], 0.283 ± 0.017.
Regarding MALAVRVVACGA, the protein stability index is 0.125 ± 0.032 in data set [1] (setting [3]); 0.1647 ± 0.0014 in data set [1] (setting [4]); 0.196 ± 0.026 in data set [1] (setting [5]); 0.281 ± 0.0065 in data set [1] (setting [6]); 0.157 ± 0.012 in data set [1] (setting [7]); 0.19 ± 0.024 in data set [1] (setting [8]). In addition, the protein stability index in data set [1] (setting [9]) came to 0.236 ± 0.0084; in data set [2] it was 0.261 ± 0.0094.
MFLHLGLFIMSH: the protein stability index in data set [1] (setting [3]) amounted to 0.348 ± 0.011; in data set [1] (setting [4]) it was 0.4065 ± 0.0032; in data set [1] (setting [5]), 0.303 ± 0.025; in data set [1] (setting [6]), 0.457 ± 0.0099; in data set [1] (setting [7]), 0.2787 ± 0.0023; in data set [1] (setting [8]), 0.306 ± 0.014. For the same sequence, the protein stability index in data set [1] (setting [9]) was 0.435 ± 0.006; in data set [2], 0.382 ± 0.037.
Turning to MFWKFVFRGFWF, the protein stability index in data set [1] (setting [3]) came to 0.694 ± 0.064; in data set [1] (setting [4]), 0.739 ± 0.008; in data set [1] (setting [5]) it was 0.641 ± 0.034; in data set [1] (setting [6]), 0.7791 ± 0.0044; in data set [1] (setting [7]), 0.221 ± 0.0052; in data set [1] (setting [8]), 0.259 ± 0.019. Further, the protein stability index stood at 0.4748 ± 0.0044 in data set [1] (setting [9]) and 0.338 ± 0.018 in data set [2].
In the case of MMEMMTKSNRIP, the protein stability index in data set [1] (setting [3]) came out at 0.683 ± 0.029; in data set [1] (setting [4]) it was 0.737 ± 0.015; in data set [1] (setting [5]) it was 0.63 ± 0.016; in data set [1] (setting [6]) it was 0.709 ± 0.04; in data set [1] (setting [7]), 0.4 ± 0.02; in data set [1] (setting [8]), 0.446 ± 0.074. In addition, the protein stability index in data set [1] (setting [9]) was found to be 0.639 ± 0.016; in data set [2] it was 0.517 ± 0.025.
As for MQFVALFLVGLL, the protein stability index in data set [1] (setting [3]) was 0.465 ± 0.041; in data set [1] (setting [4]), 0.5087 ± 0.001; in data set [1] (setting [5]), 0.346 ± 0.049; in data set [1] (setting [6]), 0.5245 ± 0.0022; in data set [1] (setting [7]) it was 0.308 ± 0.0095; in data set [1] (setting [8]), 0.354 ± 0.023. The figures for the protein stability index in data set [1] (setting [9]) and in data set [2] were 0.509 ± 0.0056 and 0.465 ± 0.0047, respectively.
Take MRGPAWVCVLYS: the protein stability index is 0.637 ± 0.026 in data set [1] (setting [3]); 0.711 ± 0.012 in data set [1] (setting [4]); 0.59 ± 0.044 in data set [1] (setting [5]); 0.69291 ± 0.00012 in data set [1] (setting [6]); 0.284 ± 0.0086 in data set [1] (setting [7]); 0.339 ± 0.023 in data set [1] (setting [8]). Also, the protein stability index is 0.5348 ± 0.0048 in data set [1] (setting [9]) and 0.485 ± 0.028 in data set [2].
Take MSVLAFVCCLSG: the protein stability index in data set [1] (setting [3]) is 0.3532 ± 0.0026; in data set [1] (setting [4]) it was 0.311 ± 0.0052; in data set [1] (setting [5]), 0.289 ± 0.033; in data set [1] (setting [6]) it was 0.393 ± 0.022; in data set [1] (setting [7]), 0.2478 ± 0.0014; in data set [1] (setting [8]), 0.268 ± 0.027. Besides, the protein stability index in data set [1] (setting [9]) was determined as 0.3585 ± 0.0029; in data set [2] it was 0.336 ± 0.0033.
